From IntAct's records for PubMed 21642537

B1: Polycystin-2 (Homo sapiens), Q13563-1 (parent)
chain: MVNSSRVQPQQPGDAKRPPAPRAPDPGRLMAGCAAVGASLAAPGGLCEQRGLEIEMQRIRQAAARDPPAGAAASPSPPLSSCSRQAWSRDNPGFEAEEEEEEVEGEEGGMVVEMDVEWRPGSRRSAASSAVSSVGARSRGLGGYHGAGHPSGRRRRREDQGPPCPSPVGGGDPLHRHLPLEGQPPRVAWAERLVRGLRGLWGTRLMEESSTNREKYLKSVLRELVTYLLFLIVLCILTYGMMSSNVYYYTRMMSQLFLDTPVSKTEKTNFKTLSSMEDFWKFTEGSLLDGLYWKMQPSNQTEADNRSFIFYENLLLGVPRIRQLRVRNGSCSIPQDLRDEIKECYDVYSVSSEDRAPFGPRNGTAWIYTSEKDLNGSSHWGIIATYSGAGYYLDLSRTREETAAQVASLKKNVWLDRGTRATFIDFSVYNANINLFCVVRLLVEFPATGGVIPSWQFQPLKLIRYVTTFDFFLAACEIIFCFFIFYYVVEEILEIRIHKLHYFRSFWNCLDVVIVVLSVVAIGINIYRTSNVEVLLQFLEDQNTFPNFEHLAYWQIQFNNIAAVTVFFVWIKLFKFINFNRTMSQLSTTMSRCAKDLFGFAIMFFIIFLAYAQLAYLVFGTQVDDFSTFQECIFTQFRIILGDINFAEIEEANRVLGPIYFTTFVFFMFFILLNMFLAIINDTYSEVKSDLAQQKAEMELSDLIRKGYHKALVKLKLKKNTVDDISESLRQGGGKLNFDELRQDLKGKGHTDAEIEAIFTKYDQDGDQELTEHEHQQMRDDLEKEREDLDLDHSSLPRPMSSRSFPRSLDDSEEDDDEDSGHSSRRRGSISSGVSYEEFQVLVRRVDRMEHSIGSIVSKIDAVIVKLEIMERAKLKRREVLGRLLDGVAEDERLGRDSEIHREQMERLVREELERWESDDAASQISHGLGTPVGLNGQPRPRSSRPSSSQSTEGMEGAGGNGSSNVHV

Variants of: B1
Conditions: with PKD1, P98161-3
Chain of PKD1, P98161-3 (P98161 whole entry, looked up): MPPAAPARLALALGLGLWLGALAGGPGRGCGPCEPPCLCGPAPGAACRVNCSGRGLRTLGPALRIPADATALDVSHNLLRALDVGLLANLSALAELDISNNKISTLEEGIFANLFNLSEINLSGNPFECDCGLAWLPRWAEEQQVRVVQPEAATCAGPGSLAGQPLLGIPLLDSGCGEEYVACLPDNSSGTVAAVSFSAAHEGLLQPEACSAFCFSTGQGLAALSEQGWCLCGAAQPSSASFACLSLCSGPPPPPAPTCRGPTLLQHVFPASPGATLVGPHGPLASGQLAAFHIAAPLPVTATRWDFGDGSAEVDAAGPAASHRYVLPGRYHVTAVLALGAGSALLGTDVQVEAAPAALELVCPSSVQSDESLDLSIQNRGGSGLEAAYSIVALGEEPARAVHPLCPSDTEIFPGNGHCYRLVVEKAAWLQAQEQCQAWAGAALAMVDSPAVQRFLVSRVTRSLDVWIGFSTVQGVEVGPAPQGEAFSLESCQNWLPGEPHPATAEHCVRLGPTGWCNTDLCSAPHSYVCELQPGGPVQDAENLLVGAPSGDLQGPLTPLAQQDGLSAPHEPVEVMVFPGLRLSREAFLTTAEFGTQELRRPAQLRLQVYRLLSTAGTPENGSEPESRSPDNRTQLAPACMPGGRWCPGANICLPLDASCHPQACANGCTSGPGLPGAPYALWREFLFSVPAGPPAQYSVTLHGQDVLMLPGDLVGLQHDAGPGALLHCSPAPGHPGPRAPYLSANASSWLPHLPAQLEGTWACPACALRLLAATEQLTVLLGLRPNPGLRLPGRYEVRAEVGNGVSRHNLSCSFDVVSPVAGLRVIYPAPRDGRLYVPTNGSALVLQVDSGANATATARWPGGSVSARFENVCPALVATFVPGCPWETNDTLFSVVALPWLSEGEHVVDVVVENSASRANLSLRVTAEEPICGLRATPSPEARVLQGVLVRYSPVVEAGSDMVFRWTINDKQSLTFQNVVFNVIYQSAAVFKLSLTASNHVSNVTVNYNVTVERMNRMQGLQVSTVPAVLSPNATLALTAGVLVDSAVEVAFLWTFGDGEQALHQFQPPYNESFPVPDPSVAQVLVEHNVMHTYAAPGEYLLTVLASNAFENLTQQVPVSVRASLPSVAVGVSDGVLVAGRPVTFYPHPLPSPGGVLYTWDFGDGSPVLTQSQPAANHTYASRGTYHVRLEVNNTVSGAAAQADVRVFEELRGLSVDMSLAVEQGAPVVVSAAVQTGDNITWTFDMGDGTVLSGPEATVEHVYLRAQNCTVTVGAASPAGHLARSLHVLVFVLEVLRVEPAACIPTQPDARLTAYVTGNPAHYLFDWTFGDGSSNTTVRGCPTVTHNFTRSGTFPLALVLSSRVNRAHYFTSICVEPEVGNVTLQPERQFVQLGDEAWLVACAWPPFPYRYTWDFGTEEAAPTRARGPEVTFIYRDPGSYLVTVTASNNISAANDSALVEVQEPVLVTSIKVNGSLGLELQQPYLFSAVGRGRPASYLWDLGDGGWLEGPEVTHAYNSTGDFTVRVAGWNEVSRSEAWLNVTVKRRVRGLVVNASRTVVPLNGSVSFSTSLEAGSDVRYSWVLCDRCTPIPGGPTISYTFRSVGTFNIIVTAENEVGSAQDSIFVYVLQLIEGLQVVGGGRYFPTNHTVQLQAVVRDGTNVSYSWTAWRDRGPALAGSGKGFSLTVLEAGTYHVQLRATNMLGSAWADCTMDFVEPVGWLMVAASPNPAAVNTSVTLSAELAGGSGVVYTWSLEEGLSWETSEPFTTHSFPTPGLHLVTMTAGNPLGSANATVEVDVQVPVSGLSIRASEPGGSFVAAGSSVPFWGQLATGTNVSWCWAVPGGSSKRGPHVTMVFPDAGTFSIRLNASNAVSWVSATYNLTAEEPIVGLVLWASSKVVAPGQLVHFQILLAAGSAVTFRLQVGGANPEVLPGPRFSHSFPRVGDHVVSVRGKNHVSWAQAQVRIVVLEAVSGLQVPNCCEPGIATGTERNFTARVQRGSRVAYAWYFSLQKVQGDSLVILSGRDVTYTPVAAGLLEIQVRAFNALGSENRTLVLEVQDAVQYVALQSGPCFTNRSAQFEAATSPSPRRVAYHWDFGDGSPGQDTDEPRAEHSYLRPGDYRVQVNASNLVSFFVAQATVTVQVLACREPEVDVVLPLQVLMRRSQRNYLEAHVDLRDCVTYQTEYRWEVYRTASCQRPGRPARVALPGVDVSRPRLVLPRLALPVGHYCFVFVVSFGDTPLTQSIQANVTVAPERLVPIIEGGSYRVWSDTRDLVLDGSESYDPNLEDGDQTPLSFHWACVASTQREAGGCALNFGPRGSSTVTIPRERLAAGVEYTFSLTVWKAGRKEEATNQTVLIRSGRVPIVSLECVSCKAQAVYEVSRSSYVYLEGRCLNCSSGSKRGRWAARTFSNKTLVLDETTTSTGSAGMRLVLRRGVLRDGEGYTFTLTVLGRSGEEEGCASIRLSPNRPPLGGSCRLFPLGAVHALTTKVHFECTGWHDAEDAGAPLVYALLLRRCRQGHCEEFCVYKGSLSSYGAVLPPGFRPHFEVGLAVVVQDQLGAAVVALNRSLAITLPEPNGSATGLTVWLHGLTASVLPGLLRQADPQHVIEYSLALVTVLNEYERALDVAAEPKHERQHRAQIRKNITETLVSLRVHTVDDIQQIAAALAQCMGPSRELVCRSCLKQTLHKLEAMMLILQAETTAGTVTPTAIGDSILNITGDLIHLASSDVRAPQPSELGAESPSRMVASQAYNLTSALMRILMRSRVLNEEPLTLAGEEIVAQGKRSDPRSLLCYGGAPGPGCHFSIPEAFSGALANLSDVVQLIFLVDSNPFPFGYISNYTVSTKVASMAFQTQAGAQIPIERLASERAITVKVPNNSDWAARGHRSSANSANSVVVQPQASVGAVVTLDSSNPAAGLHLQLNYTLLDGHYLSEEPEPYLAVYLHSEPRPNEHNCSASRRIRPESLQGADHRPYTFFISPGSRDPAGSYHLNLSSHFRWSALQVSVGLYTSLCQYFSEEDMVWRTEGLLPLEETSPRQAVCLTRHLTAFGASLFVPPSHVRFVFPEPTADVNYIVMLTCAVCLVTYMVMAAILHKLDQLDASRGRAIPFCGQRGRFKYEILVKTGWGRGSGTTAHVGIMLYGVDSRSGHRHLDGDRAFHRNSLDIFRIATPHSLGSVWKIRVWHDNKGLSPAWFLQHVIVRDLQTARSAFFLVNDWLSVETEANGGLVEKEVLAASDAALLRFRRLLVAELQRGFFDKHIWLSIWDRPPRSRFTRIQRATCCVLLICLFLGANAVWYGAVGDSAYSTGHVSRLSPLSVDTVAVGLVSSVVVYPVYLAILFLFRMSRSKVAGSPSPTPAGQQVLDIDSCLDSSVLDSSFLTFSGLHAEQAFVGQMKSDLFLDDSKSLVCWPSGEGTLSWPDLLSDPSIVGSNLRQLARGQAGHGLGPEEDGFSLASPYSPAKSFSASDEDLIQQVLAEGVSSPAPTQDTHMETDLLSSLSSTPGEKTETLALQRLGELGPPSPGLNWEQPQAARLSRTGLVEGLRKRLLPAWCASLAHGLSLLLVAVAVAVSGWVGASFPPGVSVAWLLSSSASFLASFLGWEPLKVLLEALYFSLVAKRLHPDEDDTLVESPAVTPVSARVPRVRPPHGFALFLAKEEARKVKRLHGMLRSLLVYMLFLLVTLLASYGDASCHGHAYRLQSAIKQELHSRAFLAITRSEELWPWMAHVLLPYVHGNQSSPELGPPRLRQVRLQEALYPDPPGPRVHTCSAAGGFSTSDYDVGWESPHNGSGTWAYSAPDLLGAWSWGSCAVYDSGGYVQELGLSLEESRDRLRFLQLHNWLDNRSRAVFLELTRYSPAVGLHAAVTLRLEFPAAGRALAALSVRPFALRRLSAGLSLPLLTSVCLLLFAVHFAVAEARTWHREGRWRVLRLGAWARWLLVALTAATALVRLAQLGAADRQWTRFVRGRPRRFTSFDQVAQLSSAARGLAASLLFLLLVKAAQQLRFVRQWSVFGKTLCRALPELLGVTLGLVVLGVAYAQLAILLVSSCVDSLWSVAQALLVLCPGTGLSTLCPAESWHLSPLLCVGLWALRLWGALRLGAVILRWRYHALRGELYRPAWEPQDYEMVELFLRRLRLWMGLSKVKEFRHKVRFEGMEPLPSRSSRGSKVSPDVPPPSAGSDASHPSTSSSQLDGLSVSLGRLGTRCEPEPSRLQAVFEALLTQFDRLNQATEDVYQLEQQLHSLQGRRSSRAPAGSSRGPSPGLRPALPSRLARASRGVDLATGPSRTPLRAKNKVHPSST

**Q.** Which “effect of a mutation on the interaction” value does the source give for R877A;R878A here?
**A.** decreasing interaction strength

**Q.** How did the “effect of a mutation on the interaction” value turn out when K876A;R877A;R878A;E879A was run?
**A.** decreasing interaction strength

**Q.** With D861A;I864A;V865A as the variant, how does the “effect of a mutation on the interaction” value read?
**A.** decreasing interaction strength

**Q.** For V865A;I869A, which “effect of a mutation on the interaction” value is on record?
**A.** decreasing interaction strength

**Q.** Which “effect of a mutation on the interaction” value does the source give for L881A;L885A here?
**A.** disrupting interaction strength

**Q.** How did the “effect of a mutation on the interaction” value turn out when R883A;L884A was run?
**A.** decreasing interaction strength

**Q.** How did the “effect of a mutation on the interaction” value turn out when R877G;R878G was run?
**A.** disrupting interaction strength

**Q.** K876G;R877G;R878G;E879G was tested. Which “effect of a mutation on the interaction” value did it give?
**A.** decreasing interaction strength

**Q.** V880A;L881A;L885A was tested. Which “effect of a mutation on the interaction” value did it give?
**A.** decreasing interaction strength

**Q.** For K876A;R877A, which “effect of a mutation on the interaction” value is on record?
**A.** decreasing interaction strength

**Q.** With L881D;L885D as the variant, how does the “effect of a mutation on the interaction” value read?
**A.** decreasing interaction strength

Variants of: B1
Conditions: with pkd1_mouse Pkd1, O08852

**Q.** With L881A;L885A as the variant, how does the “effect of a mutation on the interaction” value read?
**A.** decreasing interaction strength

**Q.** With V880A;L881A;L885A as the variant, how does the “effect of a mutation on the interaction” value read?
**A.** decreasing interaction strength
